The target of this data set is UKPV, spike on pseudotyped lentivirus, Alpha (SARS-CoV-2 (B.1.1.7, Alpha)) (UniProt P0DTC2). Kind of data set: dot blot.

As a reminder, the Kd is the concentration at which binding is half-saturated. The low end stands for tighter binding, the high end for weaker binding.

In turn, “TTCCGGTTAATTTATGCTCTACCCGTCCACCTACCGGAATTTTTTTTTTTTTTTTTTTTTTTTTTTTTTACGGGTTTGGCGTCGGGCCTGGCGGGGGGATAGTGCGGT [DSA1N5 (T30 linker)]” returned a Kd of 2.3 pM.

These data come from publication PMC8596624.
